The record followed here is patent US20050032692A1 (BOARD OF TRUSTEES OF THE UNIVERSITY OF ILLINOIS, published 2005).

The target of one experiment is T1, GFP-FoxM1B 1-688 protein (human, UniProt Q08050 1-703).
T1 construct: C-terminal truncation; construction not described; not shown: GFP
T1 sequence: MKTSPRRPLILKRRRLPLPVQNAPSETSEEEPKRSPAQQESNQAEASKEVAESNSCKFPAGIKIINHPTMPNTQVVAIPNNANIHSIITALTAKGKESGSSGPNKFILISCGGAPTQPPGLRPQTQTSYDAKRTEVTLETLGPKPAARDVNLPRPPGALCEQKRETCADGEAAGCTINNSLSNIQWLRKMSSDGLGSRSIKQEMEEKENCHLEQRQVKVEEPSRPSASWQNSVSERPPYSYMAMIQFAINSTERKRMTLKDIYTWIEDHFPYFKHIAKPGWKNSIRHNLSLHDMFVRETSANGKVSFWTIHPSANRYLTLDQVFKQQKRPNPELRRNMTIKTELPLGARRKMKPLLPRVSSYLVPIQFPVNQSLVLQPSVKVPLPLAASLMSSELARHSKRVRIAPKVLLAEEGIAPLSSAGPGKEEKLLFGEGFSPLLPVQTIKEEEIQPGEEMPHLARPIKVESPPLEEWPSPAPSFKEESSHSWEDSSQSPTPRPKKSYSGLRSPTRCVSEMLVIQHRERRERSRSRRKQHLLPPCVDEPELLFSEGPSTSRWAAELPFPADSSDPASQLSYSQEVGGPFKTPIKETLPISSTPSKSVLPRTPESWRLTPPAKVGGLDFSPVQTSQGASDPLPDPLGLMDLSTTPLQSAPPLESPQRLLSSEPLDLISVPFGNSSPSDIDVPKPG
Kind of experiment: Co-IP from transfected U2OS extracts.

Another experiment deals with Cdk2 protein (UniProt P24941 1-298). Put plainly: Co-IP from transfected U2OS extracts with Cdk2 antibody, Western blot with T7 tag antibody.

B1: HA-p19^ARF protein, wild type (other, UniProt Q64364 1-169, looked up, not shown: small tags and cut ends)
chain: MGRRFLVTVRIQRAGRPLQERVFLVKFVRSRRPRTASCALAFVNMLLRLERILRRGPHRNPGPGDDDGQRSRSSSSAQLRCRFELRGPHYLLPPGARRSAGRLPGHAGGAARVRGSAGCARCLGSPAARLGPRAGTSRHRAIFAFRWVLFVFRWVVFVYRWERRPDRRA
notes: also called HA tagged p19; WT p19
In the case of B1, the binding result with GFP-FoxM1B 1-688 protein is recorded as “no binding”.

B2: CMV T7-FoxM1B L641A mutant protein (other, not shown: small tags and cut ends)
chain: MKTSPRRPLILKRRRLPLPVQNAPSETSEEEPKRSPAQQESNQAEASKEVAESNSCKFPAGIKIINHPTMPNTQVVAIPNNANIHSIITALTAKGKESGSSGPNKFILISCGGAPTQPPGLRPQTQTSYDAKRTEVTLETLGPKPAARDVNLPRPPGALCEQKRETCADGEAAGCTINNSLSNIQWLRKMSSDGLGSRSIKQEMEEKENCHLEQRQVKVEEPSRPSASWQNSVSERPPYSYMAMIQFAINSTERKRMTLKDIYTWIEDHFPYFKHIAKPGWKNSIRHNLSLHDMFVRETSANGKVSFWTIHPSANRYLTLDQVFKQQKRPNPELRRNMTIKTELPLGARRKMKPLLPRVSSYLVPIQFPVNQSLVLQPSVKVPLPLAASLMSSELARHSKRVRIAPKVLLAEEGIAPLSSAGPGKEEKLLFGEGFSPLLPVQTIKEEEIQPGEEMPHLARPIKVESPPLEEWPSPAPSFKEESSHSWEDSSQSPTPRPKKSYSGLRSPTRCVSEMLVIQHRERRERSRSRRKQHLLPPCVDEPELLFSEGPSTSRWAAELPFPADSSDPASQLSYSQEVGGPFKTPIKETLPISSTPSKSVLPRTPESWRLTPPAKVGGLDFSPVQTSQGASDPLPDPLGAMDLSTTPLQSAPPLESPQRLLSSEPLDLISVPFGNSSPSDIDVPKPGSPEPQVSGLAANRSLTEGLVLDTMNDSLSKILLDISFPGLDEDPLGPDNINWSQFIPELQ
notes: also called CMV FoxM1B L641A
For B2, in the experiment with Cdk2 protein, the binding result is “no binding”.
